Results published in paper PMC5402964.

Target: α5β1 integrin (UniProt P08648)
Experiment: SPR

## DisBa-01 (disintegrin of Bothrops alternatus), recombinant His-tag protein (natural protein; other documents disagree on this pair)
  Kd: 76.2 µM
